What is called stoichiometry N is the number of molecules, sites or subunits per partner or assembly.

The target of the test is Neu/V664E TM domain peptide (rat). In words: SDS-PAGE mobility.

Substance Neu/V664E TM domain peptide showed a stoichiometry N of 2.

(Values after publication PMC3158823.)
